Paper PMC2754608, “Toll-Like Receptor 4 Decoy, TOY, Attenuates Gram-Negative Bacterial Sepsis” (PLoS ONE, 2009)

B1: TLR4 decoy receptor-3 (TOY3) (Fc fusion)
chain: EPCVEVVPNITYQCMELNFYKIPDNLPFSTKNLDLSFNPLRHLGSYSFFSFPELQVLDLSRCEIQTIEDGAYQSLSHLSTLILTGNPIQSLALGAFSGLSSLQKLVAVETNLASLENFPIGHLKTLKELNVAHNLIQSFKLPEYFSNLTNLEHLDLSSNKIQSIYCTDLRVLHQMPLLNLSLDLSLNPMNFIQPGAFKEIRLKELALDTNQLKSVPDGIFDRLTSLQKIWLHTNPWDCSCPRIDYLSRWLNKNSQKEQGSAKCSGSGKPVRSIICP
modifications: N-glycosylated (CHO). TLR4 27-227 limits are printed; VLRB.61 fragment limits are only in a figure, so taken from the TV3 hybrid crystal construct (PDB 2Z62, recalled from memory). Hagfish species …
B2: TLR4 decoy receptor-8 (TOY8) (Fc fusion)
chain: EPCVEVVPNITYQCMELNFYKIPDNLPFSTKNLDLSFNPLRHLGSYSFFSFPELQVLDLSRCEIQTIEDGAYQSLSHLSTLILTGNPIQSLALGAFSGLSSLQKLVAVETNLASLENFPIGHLKTLKELNVAHNLIQSFKLPEYFSNLTNLEHLDLSSNKIQSIYCTDLRVLHQMPLLNLSLDLSLNPMNFIQPGAFKEIRLHKLTLRNNFDSLNVMKTCIQGLAGLEVHRLVLGEFRNEGNLEKFDKSALEGLCNLTIEEFRLAYLDYYLDDIIDLFNCLTNVSSFSLVSVTIERVKDFSYNFGWQHLELVNCKFGQFPTLKLKSLKRLTFTSNKGGNAFSEVDLPSLEFLDLSRNGLSFKGCCSQSDFGTTSLKYLDLSFNGVITMSSNFLGLEQLEHLDFQHSNLKQMSEFSVFLSLRNLIYLDISHTHTRVAFNGIFNGLSSLEVLKMAGNSFQENFLPDIFTELRNLTFLDLSQCQLEQLSPTAFNSLSSLQVLNMASNQLKSVPDGIFDRLTSLQKIWLHTNPWDCSCPRIDYLSRWLNKNSQKEQGSAKCSGSGKPVRSIICP
modifications: N-glycosylated (CHO). TLR4 27-527 limits are printed; VLRB.61 fragment limits are only in a figure, so taken from the TV8 hybrid crystal construct (PDB 2Z63, recalled from memory). Hagfish species …
B3: myeloid differentiation protein-2 (MD-2) (natural protein, human, UniProt Q9Y6Y9 19-160, looked up)
chain: QKQYWVCNSSDASISYTYCDKMQYPISINVNPCIELKRSKGLLHIFYIPRRDLKQLYFNLYITVNTMNLPKRKEVICRGSDDDYSFCRALKGETVNTTISFSFKGIKFSKGKYKCVVEAISGSPEEMLFCLEFVILHQPNSN
notes: also called hMD-2

What was measured:
[1] = target: B3; assay: SPR; BIAcore 3000; TFE, TOY3 or TOY8 (1 µg) amine-coupled (NHS/EDC) on a CM5 chip at about 2,000 RU; BSA on a control portion of the chip; recombinant MD-2 flowed over; nonlinear curve fitting with BIAEVALUATION; conditions: both partners purified
[2] = target: T1, TLR4 full-length ectodomain fused to IgG-Fc (TFE) (human, UniProt O00206 27-631); assay: as above; conditions: both partners purified
T1 construct: Toll-like receptor 4 (TLR4), human, full-length ectodomain, amino acid residues 27-631; Disulfide-linked dimer through the Fc domain (non-reducing SDS-PAGE); N-glycosylated; source: recombinant CHO cells (dhfr-deficient, MTX amplification), secreted, purified (Protein-A sepharose); not shown: Fc (human IgG1), C-terminal, kept

Binder | Kd [1] | Kd [2]
B1 | ~76 nM | 
B2 | ~56 nM | 
B3 |  | ~81 nM
